Common to all, as to assay: flow cytometry on cells; equilibrium titration: 100 nM to 300 pM recombinant integrin αvβ6 incubated with 10^5 yeast cells displaying the knottin plus 10^6 un-induced yeast cells; integrin binding buffer (25 mM Tris pH 7.4, 150 mM NaCl, 2 mM CaCl2, 1 mM MgCl2, 1 mM MnCl2, 0.1% BSA); fluorescein anti-αv antibody, binding normalised to cMyc expression
Background: In flow cytometry, cells or beads pass a laser one at a time.

Assay [1] addresses R01-MG cystine knot peptide displayed on the yeast surface.
Assay [2] addresses R01-MR cystine knot peptide displayed on the yeast surface.
Assay [3] addresses R01 cystine knot peptide displayed on the yeast surface.

We go through 1 substance from paper PMC6791878, “Evaluation of integrin αvβ6 cystine knot PET tracers to detect cancer and idiopathic pulmonary fibrosis” (Nature Communications, 2019).

One may read the Kd as a measure of binding affinity in units of concentration.

For “Recombinant human integrin αvβ6 (from UniProt P06756 31-1048; P18564 22-709) (complex)”, the results for the dissociation constant (Kd) in assay [1], in assay [2] and in assay [3] were 1.24 nM, 1 nM and 1 nM, respectively.
